Experiments:
Conditions in all cases: both partners purified
[1] = target: T1, β-glucocerebrosidase (GCase), untagged wild type (human, UniProt P04062 40-536, N-glycans at N19, N59, N146, N270); test: cryo-EM structure; GCase/sLIMP-2/PMb1/PMb2 complex from SEC, 0.6 mg/ml, single particle analysis, 3.7 Å global resolution
T1 construct: β-glucocerebrosidase (GCase), human, gene GBA1, wild type, expressed from the commercial plasmid pCMV3-GBA-wt; also called GCase wt; wt GCase; source: HEK 293F-sL2 cells transfected with pCMV3-GBA-wt, secreted in complex with sLIMP-2, purified (Ni-NTA, SEC); HEK 293F cells co-transfected with sLIMP-2 plasmids, in conditioned medium
T1 sequence (looked up): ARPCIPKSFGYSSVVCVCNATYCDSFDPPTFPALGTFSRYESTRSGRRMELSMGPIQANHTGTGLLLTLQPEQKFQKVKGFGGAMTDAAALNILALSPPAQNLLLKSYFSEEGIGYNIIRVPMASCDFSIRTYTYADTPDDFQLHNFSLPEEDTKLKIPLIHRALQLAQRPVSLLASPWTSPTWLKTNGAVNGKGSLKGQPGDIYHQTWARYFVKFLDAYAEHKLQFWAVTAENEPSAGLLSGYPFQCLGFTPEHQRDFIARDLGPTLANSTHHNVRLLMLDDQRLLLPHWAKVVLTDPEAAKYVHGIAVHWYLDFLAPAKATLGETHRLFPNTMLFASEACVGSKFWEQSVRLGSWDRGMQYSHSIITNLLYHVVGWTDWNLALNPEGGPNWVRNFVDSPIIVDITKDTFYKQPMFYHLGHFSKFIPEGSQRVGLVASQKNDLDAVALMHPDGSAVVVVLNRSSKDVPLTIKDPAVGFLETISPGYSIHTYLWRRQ

[2] = target: T2, β-glucocerebrosidase (GCase), untagged wild type (human, UniProt P04062, N-glycans at N19, N59, N146, N270); test: as above
T2 construct: β-glucocerebrosidase (GCase), human, gene GBA1, wild type, expressed from the commercial plasmid pCMV3-GBA-wt; also called GCase wt; wt GCase; source: HEK 293F-sL2 cells transfected with pCMV3-GBA-wt, secreted in complex with sLIMP-2, purified (Ni-NTA, SEC); HEK 293F cells co-transfected with sLIMP-2 plasmids, in conditioned medium

[3] = target: T3, GCase used for size exclusion chromatography with Nb1 and Nb6 (human, UniProt P04062); test: SEC; 20 µM GCase mixed with 100 µM Nb1, Nb6 or both; Superdex 200 Increase 5/150 GL, 10 mM MES, 100 mM NaCl, 1 mM DTT, 5% glycerol, pH 5.2, 12 °C
T3 construct: β-glucocerebrosidase (GCase); it may be the same as m8 or another recombinant GCase

[4] = target: T4, recombinant GCase with C-terminal His10-tag (for cross-linking with SapC) (human, UniProt P04062 40-536); test: cross-linking; GCase 16.3-20.0 µM and SapC 32.5 µM in McIlvaine buffer pH 6.0 with 10 mM NaCl (some reactions with 0.1% Triton X-100 and 0.25% sodium taurocholate); BS3(d0)/BS3(d4) or DTSSP at 1 mM, 1 h at room temperature; gel bands read by mass spectrometry
T4 construct: β-glucocerebrosidase (GCase), with a small spacer and a TEV protease cleavage site before the C-terminal His10-tag; no TEV cleavage is described; source: FreeStyle 293 HEK cells, stably transfected (pcDNA3.1(+)), purified from cell media (HisTrap)
T4 sequence (looked up): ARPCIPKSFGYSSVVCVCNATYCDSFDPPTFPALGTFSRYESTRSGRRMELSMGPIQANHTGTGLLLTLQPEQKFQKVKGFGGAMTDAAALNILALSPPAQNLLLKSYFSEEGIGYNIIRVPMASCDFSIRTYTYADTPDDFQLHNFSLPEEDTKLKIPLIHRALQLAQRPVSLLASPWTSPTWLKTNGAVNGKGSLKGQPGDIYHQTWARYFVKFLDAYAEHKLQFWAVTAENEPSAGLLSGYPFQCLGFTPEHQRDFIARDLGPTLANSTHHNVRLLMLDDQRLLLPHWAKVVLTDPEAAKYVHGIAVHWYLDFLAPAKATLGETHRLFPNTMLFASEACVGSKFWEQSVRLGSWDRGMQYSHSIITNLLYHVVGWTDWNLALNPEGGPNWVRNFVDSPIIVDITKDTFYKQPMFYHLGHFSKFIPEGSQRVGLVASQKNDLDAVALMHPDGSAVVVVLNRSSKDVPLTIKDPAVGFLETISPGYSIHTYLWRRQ

B1: soluble LIMP-2 shuttle construct (sLIMP-2), secreted LIMP-2 ectodomain, wild type (domain or fragment, human, UniProt Q14108 36-431, looked up)
chain: SIEKKIVLRNGTEAFDSWEKPPLPVYTQFYFFNVTNPEEILRGETPRVEEVGPYTYRELRNKANIQFGDNGTTISAVSNKAYVFERDQSVGDPKIDLIRTLNIPVLTVIEWSQVHFLREIIEAMLKAYQQKLFVTHTVDELLWGYKDEILSLIHVFRPDISPYFGLFYEKNGTNDGDYVFLTGEDSYLNFTKIVEWNGKTSLDWWITDKCNMINGTDGDSFHPLITKDEVLYVFPSDFCRSVYITFSDYESVQGLPAFRYKVPAEILANTSDNAGFCIPEGNCLGSGVLNVSICKNGAPIIMSFPHFYQADERFVSAIEGMHPNQEDHETFVDINPLTGIILKAAKRFQINIYVKKLDDFVETGDIRTMVFPVMYLNESVHIDKETASRLKSMINT
modifications: N-glycans at N45, N68, N105, N206, N224, N249, N304, N325, N412
notes: lysosomal integral membrane protein type-2 (LIMP-2), human, gene SCARB2, amino acids 36-431 (ectodomain); the 10xHis tag is TEV-cleavable, and no cleavage is described; also called wt sLIMP-2; lysosomal integral membrane protein type-2; source: HEK 293F cells transfected, in conditioned medium; not shown: His10, C-terminal, kept
B1: binds [1].

B2: pro-macrobody PMb1 (nanobody Nb1, CA16655, fused to maltose binding protein) (VHH)
VHH: QVQLVESGGGLVQPGGSLRLSCAASGFTLDYYAIGWFRQAPGKEREGVSCISSSDGSTYYADSAKGRFTISRDNAKNTVYLQMNSLKPEDTAVYYCATDRGQCTYYSSGYYRDLRWYDYWGQGTQVTVPP
notes: nanobody Nb1 (CA16655) raised against GCase; proline-proline linker, told in words; The N-terminal pelB-10xHis-MBP was removed with 3C protease; the C-terminal MBP is part of the pro-macrobody and was detected by anti-MBP blot; By my reading of the printed primers the C-terminal MBP begins at LVIWING after the PP linker and ends at KDAQT followed by PGA; Only the nanobody domain is modelled in …
B2: binds [2].

B3: pro-macrobody PMb2 (nanobody Nb6, CA16669, fused to maltose binding protein) (VHH)
VHH: QVQLVESGGGLVQPGGSLRLSCAASGSIFSINTMGWYRQAPGKEREMVAYIITFGSTNYADSVKGRFTISGDNANNTMWLQMNSLKPEDTAVYYCYAAIRPTDSSTYTSYWGQGTQVTVPP
notes: nanobody Nb6 (CA16669) raised against GCase; proline-proline linker, told in words; The N-terminal pelB-10xHis-MBP was removed with 3C protease; Only the nanobody domain is modelled in PDB 9FJF; also called PMbs; source: E. coli MC1061, purified (Ni-NTA, 3C cleavage, second IMAC, SEC); not shown: His10, N-terminal, cleaved; MBP, N-terminal, cleaved
B3: binds [2].

B4: nanobody Nb1 (CA16655) against GCase (VHH)
VHH: QVQLVESGGGLVQPGGSLRLSCAASGFTLDYYAIGWFRQAPGKEREGVSCISSSDGSTYYADSAKGRFTISRDNAKNTVYLQMNSLKPEDTAVYYCATDRGQCTYYSSGYYRDLRWYDYWGQGTQVTVSS
notes: nanobody Nb1 (CA16655); they are in PDB 9ENA and, as the nanobody domain of m3, in PDB 9FJF; Encoded in a pHEN29 vector; also called Nbs1
B4: binds [3].

B5: nanobody Nb6 (CA16669) against GCase (VHH)
VHH: QVQLVESGGGLVQPGGSLRLSCAASGSIFSINTMGWYRQAPGKEREMVAYIITFGSTNYADSVKGRFTISGDNANNTMWLQMNSLKPEDTAVYYCYAAIRPTDSSTYTSYWGQGTQVTVPP
notes: nanobody Nb6 (CA16669); they are, as the nanobody domain of m4, in PDB 9FJF; Encoded in a pHEN29 vector
B5: binds [3].

B6: Saposin C (SapC) (natural protein, Homo sapiens, UniProt P07602 311-390, looked up)
chain: SDVYCEVCEFLVKEVTKLIDNNKTEKEILDAFDKMCSKLPKSLSEECQEVVDTYGSSILSILLEEVSPELVCSMLHLCSG
notes: Saposin C, Homo sapiens, the cut product of prosaposin; synthetic gene, codon optimised for E. coli, in pET-28a(+); The His6-tag is followed by a TEV protease cleavage site; no cleavage is described in the purification; source: E. coli BL21(DE3) or BL21(DE3)pLysS, purified (HisTrap, Superdex 75)
B6: binds [4].

— publication PMC11955523, “Cryo-TEM structure of β-glucocerebrosidase in complex with its transporter LIMP-2” (Nature Communications, 2025)
